Results on one molecule are retold here after patent publication US20260217847A1 (NANJING REGENECORE BIOTECH, published 2026).

Common to all, as to assay: peptide ELISA on streptavidin plate, 2 µg/mL 2H7-hFc, anti-hFc HRP
For orientation: In an ELISA, binding on a coated surface is turned into a signal by an enzyme label.

For assay [1], the target named is T1, TfR1 peptide D2-loop1-loop2 (human).
T1 construct: Synthetic peptide, captured on a streptavidin-coated plate; also called peptide No. 15
T1 peptide: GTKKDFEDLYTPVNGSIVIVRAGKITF
The procedure: (§1) The peptide-antibody binding was identified using a standard enzyme-linked immunosorbent assay (ELISA). The steps were as follows: [0244] (1) The wells of an ELISA plate were coated with 100 μL of 2 μg/mL SA (streptavidin) protein at 4° C. overnight. […] (2) The wells of the ELISA plate were washed with PBST buffer. After adding 200 μL of 2% BSA, the plate was blocked at 37° C. for 1 h. […] (3) The peptide protein was diluted to 2 μg/mL, and a negative control and a positive control (AVI-tagged TfR1 protein) were included. Each experiment contained duplicate controls. […] (4) The wells of the ELISA plate were washed multiple times with PBST buffer. Then, 100 μL of the diluted peptide protein solution from step (3) was added into wells in duplicate, and along with the negative control wells, incubated at 37° C. for 1 h. [0248] (5) The wells of the ELISA plate were washed multiple times with PBST buffer. […] [0249] (6) The wells of the ELISA plate were washed multiple times with PBST buffer. Then, 100 μL of 2× anti-hFc HRP secondary antibody was added, and the plate was incubated at 37° C. for 1 h. [0250] (7) The wells of the ELISA plate were washed multiple times with PBST buffer. After adding 100 μL of TMB chromogenic solution, the reaction was carried out in the dark at room temperature for 30 min. [0251] (8) 100 μL of stop solution (1 mol/L HCl) was added to terminate the reaction. OD450 was measured using a microplate reader, and the readings were recorded.

The target in assay [2] is T2, TfR1 peptide D2-loop2-K (human).
T2 construct: Synthetic peptide, captured on a streptavidin-coated plate; also called peptide No. 21
T2 peptide: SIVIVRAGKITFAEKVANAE
As to the method: as §1

Assay [3] deals with T3, TfR1 peptide D1-helix5 (human).
T3 construct: Synthetic peptide, captured on a streptavidin-coated plate; also called peptide No. 17
T3 peptide: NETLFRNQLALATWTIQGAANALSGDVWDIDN
The procedure:
as §1

In assay [4] the target is T4, TfR1 peptide D1-helix1 (human).
T4 construct: Synthetic peptide, captured on a streptavidin-coated plate; also called peptide No. 1
T4 peptide: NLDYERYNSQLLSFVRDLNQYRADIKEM
As to the method:
as §1

Assay [5] concerns the target T5, TfR1 peptide D2-loop3-K (human).
T5 construct: Synthetic peptide, captured on a streptavidin-coated plate; also called peptide No. 14
T5 peptide: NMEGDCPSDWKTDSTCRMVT
The procedure: as §1

In assay [6] the target is T6, TfR1 peptide D3-helix3 (human).
T6 construct: Synthetic peptide, captured on a streptavidin-coated plate; also called peptide No. 7
T6 peptide: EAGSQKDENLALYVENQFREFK
The procedure:
as §1

The target of assay [7] is T7, TfR1 peptide D3-helix3-loop1 (human).
T7 construct: Synthetic peptide, captured on a streptavidin-coated plate; also called peptide No. 10
T7 peptide: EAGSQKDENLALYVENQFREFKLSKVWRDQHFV
The procedure: as §1

Assay [8] deals with T8, TfR1 peptide D2-loop1 (human).
T8 construct: Synthetic peptide, captured on a streptavidin-coated plate; also called peptide No. 12
T8 peptide: GTKKDFEDLY
As to the method:
as §1

The target in assay [9] is T9, TfR1 peptide D2-loop1-K (human).
T9 construct: Synthetic peptide, captured on a streptavidin-coated plate; also called peptide No. 13
T9 peptide: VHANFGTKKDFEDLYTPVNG
As to the method:
as §1

For assay [10], the target named is T10, TfR1 peptide D3-helix1-helix2 (human).
T10 construct: Synthetic peptide, captured on a streptavidin-coated plate; also called peptide No. 8
T10 peptide: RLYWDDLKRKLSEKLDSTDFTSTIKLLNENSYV
As to the method:
as §1

Assay [11] has as its target T11, TfR1 peptide D1-helix1-helix2 (human).
T11 construct: Synthetic peptide, captured on a streptavidin-coated plate; also called peptide No. 18
T11 peptide: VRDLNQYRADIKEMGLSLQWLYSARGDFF
The procedure: as §1

The target of assay [12] is T12, TfR1 peptide D3-helix2 (human).
T12 construct: Synthetic peptide, captured on a streptavidin-coated plate; also called peptide No. 6
T12 peptide: FTSTIKLLNENSYV
The procedure: as §1

Assay [13] has as its target T13, TfR1 peptide D1-helix3 (human).
T13 construct: Synthetic peptide, captured on a streptavidin-coated plate; also called peptide No. 16
T13 peptide: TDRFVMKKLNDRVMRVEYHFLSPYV
As to the method: as §1

The target of assay [14] is T14, TfR1 peptide D1-helix3-helix4 (human).
T14 construct: Synthetic peptide, captured on a streptavidin-coated plate; also called peptide No. 19
T14 peptide: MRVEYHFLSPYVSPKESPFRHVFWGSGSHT
The procedure: as §1

Assay [15] addresses T15, TfR1 peptide D3-loop1 (human).
T15 construct: Synthetic peptide, captured on a streptavidin-coated plate; also called peptide No. 11
T15 peptide: LSKVWRDQHFV
The procedure: as §1

B1: anti-humanized TfR1 single-domain antibody-Fc fusion antibody 2H7-hFC1 (Fc fusion)
chain (part 1 of 2): ESGGGLVQPGESLRLSCVASGSIWSIYTMGWYRQAPGKQRDFVASITGDSTRTLESVKDRFIISRDNTKNTLYLQMNSLKPEDTAVYYCQAITSLGEYWGQGTQVTVSS
notes: Expressed in 293F cells, Protein A purified; labelled with pHrodo iFL Green in the internalization assays; also called VHH-hFc; not shown: human IgG1 Fc: hinge, CH2 and CH3 regions, from vector RJK-V4-hFC1; limits and junction (multiple cloning site) not stat
Turning to B1, the OD450 was found to be 1.12 in assay [1]; 0.16 in [2]; 0.206 in [3]; 0.21 in [4]; 0.217 in [5]; 0.155 in assay [6]. Further, the OD450 in assay [7] was found to be 0.229; in assay [8], 0.176; in assay [9] it was 0.195; in assay [10], 0.274; in [11], 0.977; in assay [12] it was 0.17. For the same molecule, the OD450 in [13] is 0.974; in assay [14], 0.508; in assay [15], 0.17. The P/N was determined as 6.4 in [1], 3.5 in [11], 5 in [13] and 4.7 in assay [14].
